Data set [1] can be described thus: In vitro serum stability, human serum. In kind it is in vitro ADME. The note with it: 37° C., read-out: stability in human serum (intact radiotracer). As to the method:
Mouse or human serum (500 μl, both purchased from Millipore Sigma) was combined with an aliquot of the formulated radiotracer (100-200 μCi) and incubated at 37° C. Aliquots (100-200 μl) were drawn for analysis at 1 and 2 h post-incubation for the ^68Ga radiotracers and 1 and 24 h post-incubation for ^177Lu radiotracers, mixed with absolute ethanol (500 μl, 4° C.), and centrifuged (2300× g, 3 min) to precipitate out serum proteins. The supernatant was diluted with HPLC Solvent A and analyzed by radio-HPLC to determine the fraction of intact radiotracer as disclosed in Hausner et al., “In vitro and in vivo evaluation of the effects of aluminum [^18F]fluoride radiolabeling on an integrin αvβ6-specific peptide” Nuclear medicine and biology.

The test system of data set [2] is mouse serum proteins. Put plainly: Serum protein (albumin) binding by ultrafiltration, mouse serum. In kind it is in vitro ADME. The settings on record: 37° C. As to the method:
The devices were pre-treated with PBS containing Tween 20 (5% v/v) as disclosed in Hausner 2007, followed by triplicate rinses with PBS. An aliquot of each formulated radiotracer in PBS (≤25 μL, 20-60 KBq) was thoroughly mixed with 0.5 mL serum at 37° C. in a microfuge tube. The mixture was incubated at 37° C. for 5 min and an aliquot (50 μL) of was transferred to a tube for γ-counting. The remaining sample was transferred to a Centrifree Ultrafiltration device and centrifuged for 40 min. at 1500×g at ambient temperature (20-24° C.). An aliquot (50 μL) of the filtrate was transferred to a tube for γ-counting. For each radiotracer, a blank was run using 0.5 mL PBS/Tween 20 (5% v/v) instead of serum (n=4) to determine non-specific binding. Following γ-counting, the protein-bound radioactivity was calculated by subtracting the counts measured in the filtrate aliquot (i.e., not protein bound) from the counts in the corresponding serum aliquot. The data are expressed as mean±standard deviation of fraction of radioactivity bound to protein after subtraction of non-specific binding determined in the blank.

Data set [3] deals with αvβ6 (+) BxPC-3 tumors. Put plainly: In vivo targeted radionuclide therapy. The arrangement: species or system mice. As to the method:
Female nu/nu nude mice (6-8 weeks old) were purchased from Charles River Laboratories (Wilmington, MA, USA) and handled according to the UC Davis Institutional Animal Care and Use Committee. BxPC-3 cells (5×10^6) in 100 μl 1:1 GFR-Matrigel: serum-free RPMI were implanted subcutaneously into the left shoulder flank and allowed to grow for approximately 2 weeks (therapy study) and 3 weeks (0.5-1 cm in diameter, for imaging and biodistribution studies). All cells were evaluated with flow cytometry before injection to confirm integrin expression levels. Food and water were available ad libitum.
For in vivo targeted radionuclide therapy, mice were implanted subcutaneously with BxPc-3 tumor cells 14 days before start of treatment. Mice were randomly chosen and divided into four treatment groups: Control Saline (Group 1, n=5); Control Peptide DOTA-ABM-5G (Group 2, n=6); 1×74 MBq [^177Lu]Lu DOTA-ABM-5G (Group 3, n=10); and 2×37 MBq [^177Lu]Lu DOTA-ABM-5G (Group 4, n=7). Average tumor volume at the start of the treatment was 14-218 mm^3. Group 2 received 20 μg of peptide DOTA-ABM-5G per mouse as a control. Group 3 received 74 MBq on day 14 post-tumor implant (treatment day 0), and Group 4 received two doses of 37 MBq on day 14 and 21 post-tumor implant (treatment days 0 and 7), at a specific activity of 18.5 MBq/nmol. Body weights and tumor volumes were measured the day before treatment, and twice a week post-treatment throughout the study. Tumor volume (TV) was determined according to the equation TV=(π/6)*L*W*H, where L is the longest axis, W is the axis perpendicular to L and H is perpendicular to the plane of L and W. End point determination was based on the longest axis of TV exceeding 2 cm, active ulceration, or compromised health of the mouse, including >20% loss of body weight from the start of the study. Survival curves are depicted as a Kaplan-Meier plot, using start of treatment as day 0.

Each structure is given as a SMILES string.

Consider `CNC(=O)C(CCCCNC(=O)C(CC(=O)O)NC(=O)CCCNC(=O)CCCc1ccc(I)cc1)NC(=O)CN1CCN2CCN3CCN(CC1)CC(=O)[O][177Lu]([O]C(=O)C2)[O]C(=O)C3` (stereo not drawn) [[^177Lu]Lu DOTA-ABM-5G], for which the remaining at 24 h in data set [1] was not below 97%. Besides, the “albumin (serum protein) binding” value in data set [2] stood at 54.4±2.8%. The median survival post-treatment was determined as 82 days in data set [3] (Group 3, 1×74 MBq); 113 days in data set [3] (Group 4, 2×37 MBq (days 0 and 7)). For the same molecule, the “adverse events and weight loss during the study” value in data set [3] (any group, 120 days) was “No adverse events and weight loss”. Further, in data set [3] (mouse, in vivo), the “adverse reaction to treatment in blood chemistry” value was “no adverse reaction”.

Source of the values: patent US12649008B2, “Peptide receptor radionuclide therapy” (The Regents of the University of California, priority 2020, dated 2026).
